The results in this text go back to article PMC3797037, “Structural and Mechanistic Insight into DNA Unwinding by Deinococcus radiodurans UvrD” (PLoS ONE, 2013).

Numbering of substitutions follows the chain as printed.

One data set deals with T1, drUvrD G426T (Deinococcus radiodurans, UniProt Q9RTI9 1-745, G426T).
T1 sequence: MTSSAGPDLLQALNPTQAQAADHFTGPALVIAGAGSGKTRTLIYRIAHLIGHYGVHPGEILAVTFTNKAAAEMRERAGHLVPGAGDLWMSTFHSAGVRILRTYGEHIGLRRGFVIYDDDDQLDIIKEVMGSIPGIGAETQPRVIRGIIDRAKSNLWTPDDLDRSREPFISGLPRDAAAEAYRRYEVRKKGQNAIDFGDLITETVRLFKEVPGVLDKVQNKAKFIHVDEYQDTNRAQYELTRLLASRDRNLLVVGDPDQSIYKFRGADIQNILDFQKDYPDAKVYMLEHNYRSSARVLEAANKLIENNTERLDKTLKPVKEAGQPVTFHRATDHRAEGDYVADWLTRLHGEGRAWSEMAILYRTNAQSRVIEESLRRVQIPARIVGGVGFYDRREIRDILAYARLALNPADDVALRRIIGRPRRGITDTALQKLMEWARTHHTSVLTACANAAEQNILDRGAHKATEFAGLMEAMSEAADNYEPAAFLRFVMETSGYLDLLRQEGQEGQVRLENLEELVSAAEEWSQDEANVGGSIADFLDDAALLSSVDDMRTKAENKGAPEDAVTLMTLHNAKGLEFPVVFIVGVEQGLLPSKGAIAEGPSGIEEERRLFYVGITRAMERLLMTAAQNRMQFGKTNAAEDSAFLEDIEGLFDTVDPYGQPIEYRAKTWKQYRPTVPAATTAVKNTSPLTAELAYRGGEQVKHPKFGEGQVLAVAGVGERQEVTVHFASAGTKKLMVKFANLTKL
Description: fluorescence anisotropy; 1 mM AMPPNP; not significantly different from WT; Fluorescence anisotropy: buffer A (composition not in material) + 0.05% Tween 20, 0.1 mg/mL BSA, 1 mM AMPPNP; 2.5 nM DNA, 0-8 µM protein, 80 µl, room temperature; single-site fit. To be noted: protein: recombinant, tags: N-terminal His-tag cleaved with TEV (pET151d), label: fluorescein (internal dT12), 25 bp duplex, other end blunt. (Polarisation of emitted light reports the rotation of a fluorescent probe.)

The target in data set [1] is T2, drUvrD FL (WT) (Deinococcus radiodurans, UniProt Q9RTI9 1-745).
T2 sequence: T1 sequence with T426G
Description: fluorescence anisotropy; 1 mM AMPPNP; Fluorescence anisotropy: buffer A (composition not in material) + 0.05% Tween 20, 0.1 mg/mL BSA, 1 mM AMPPNP; 2.5 nM DNA, 0-8 µM protein, 80 µl, room temperature; single-site fit. To be noted: protein: recombinant, tags: N-terminal His-tag cleaved with TEV (pET151d), label: fluorescein (internal dT12), 25 bp duplex, other end blunt.

Data set [2] concerns the target T3, drUvrDΔC (Deinococcus radiodurans, UniProt Q9RTI9 1-665, del666-745).
T3 sequence: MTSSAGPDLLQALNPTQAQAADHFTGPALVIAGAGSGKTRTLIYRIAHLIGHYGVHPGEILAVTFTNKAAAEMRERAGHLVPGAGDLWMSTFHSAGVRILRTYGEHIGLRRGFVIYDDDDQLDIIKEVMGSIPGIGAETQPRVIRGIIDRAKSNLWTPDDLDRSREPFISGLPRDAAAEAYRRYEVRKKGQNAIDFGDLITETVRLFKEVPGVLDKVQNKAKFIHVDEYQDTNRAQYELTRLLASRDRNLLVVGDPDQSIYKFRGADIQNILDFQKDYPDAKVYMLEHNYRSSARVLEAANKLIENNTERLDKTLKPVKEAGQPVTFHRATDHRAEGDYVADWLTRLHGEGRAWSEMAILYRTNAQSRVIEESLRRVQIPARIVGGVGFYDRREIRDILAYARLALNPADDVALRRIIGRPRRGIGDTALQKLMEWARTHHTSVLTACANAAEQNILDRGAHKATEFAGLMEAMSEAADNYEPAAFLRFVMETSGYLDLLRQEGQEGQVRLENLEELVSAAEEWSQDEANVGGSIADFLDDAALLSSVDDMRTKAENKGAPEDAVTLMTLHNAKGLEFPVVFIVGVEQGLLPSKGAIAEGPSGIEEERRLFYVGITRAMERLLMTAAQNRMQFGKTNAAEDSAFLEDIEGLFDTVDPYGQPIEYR
Description: X-ray crystallography (3.0 Å); fluorescein-dT21 DNA; Fluorescence anisotropy: buffer A (composition not in material) + 0.05% Tween 20, 0.1 mg/mL BSA, 1 mM AMPPNP; 2.5 nM DNA, 0-8 µM protein, 80 µl, room temperature; single-site fit. Particulars: protein: recombinant; tags: N-terminal His-tag cleaved with TEV (pET151d); chain copies: 2; label: fluorescein (internal dT21); 18 bp duplex, 3' overhang 7 nt at both ends.

Substrate in data set [3]: Nc1ncnc2c1ncn2[C@@H]1O[C@H](COP(=O)(O)OP(=O)(O)OP(=O)(O)O)[C@@H](O)[C@H]1O
Kind of data set: spectrophotometric ATPase assay. It is filed as biochemical, Deinococcus radiodurans. To be noted: ssDNA-stimulated: excess 25mer polydT (10xKssDNA), ATP 0-1 mM, 100 nM enzyme, 5 mM MgCl2, 100 mM NaCl, pH 8.0, 25°C. The source says: spectrophotometric ATPase assay on drUvrD^FL | determine their apparent turnover rates (Kcat) for ATP hydrolysis, along with their Km for ATP

Data set [4] concerns the target T3, drUvrDΔC. Kind of data set: X-ray crystallography (2.5 Å); AMPPNP, form I, P212121; Fluorescence anisotropy: buffer A (composition not in material) + 0.05% Tween 20, 0.1 mg/mL BSA, 1 mM AMPPNP; 2.5 nM DNA, 0-8 µM protein, 80 µl, room temperature; single-site fit. To be noted: protein: recombinant; tags: N-terminal His-tag cleaved with TEV (pET151d); chain copies: 2; 18 bp duplex, 3' overhang 7 nt (dT7) at both ends.

Data set [5] addresses T2, drUvrD FL (WT). Kind of data set: X-ray crystallography (4.0 Å); AMPPNP, P21; Fluorescence anisotropy: buffer A (composition not in material) + 0.05% Tween 20, 0.1 mg/mL BSA, 1 mM AMPPNP; 2.5 nM DNA, 0-8 µM protein, 80 µl, room temperature; single-site fit. Particulars: protein: recombinant; tags: N-terminal His-tag cleaved with TEV (pET151d); 21 bp duplex, 3' overhang 7 nt (dT7) at both ends.

Substrate in data set [6]: Nc1ncnc2c1ncn2[C@@H]1O[C@H](COP(=O)(O)OP(=O)(O)OP(=O)(O)O)[C@@H](O)[C@H]1O
Kind of data set: spectrophotometric ATPase assay. It is filed as biochemical, Deinococcus radiodurans. To be noted: ssDNA-stimulated: excess 25mer polydT (10xKssDNA), ATP 0-1 mM, 100 nM enzyme, 5 mM MgCl2, 100 mM NaCl, pH 8.0, 25°C. The source says:
spectrophotometric ATPase assay on drUvrD^∆C | ATPase data measured on drUvrD^FL and drUvrD^∆C
The source holds these as a separate data set.

Setting [7] is: 3' overhang 15 nt (dT15) on strand 2.
The mark [8] stands for this setting: 5' overhang 15 nt (dT15) on strand 2.

B1: 3'-tailed dsDNA (H1T12/H3-15) (dsDNA)
DNA 1: TCGGTACGACCTGCGAGCACTGCTT
DNA 2: AAGCAGTGCTCGCAGGTCGTACCGATTTTTTTTTTTTTTT
modifications: fluorescein-dT at position 12 of strand 1
As usually defined, the Kd is the equilibrium constant for the complex coming apart. With B1, the binding result with drUvrD G426T (setting [7]) is “binds”. For the same molecule, the Kd in the data set with drUvrD FL (WT) [1] (setting [7]) amounted to 360 nM.

B2: For25-21F/Rev25-21F (dsDNA)
DNA 1: GCAGTGCTCGCAGGTCGTTTTTTTT
DNA 2: ACGACCTGCGAGCACTGCTTTTTTT
modifications: fluorescein-dT at position 21 of both strands
For the molecule B2, the binding result with drUvrDΔC [2] was “binds”.

B3: drUvrD^FL (Deinococcus radiodurans R1 = ATCC 13939 = DSM 20539) (protein)
chain: T1 sequence with T426G
notes: full-length (residues to 745), pET151d, E. coli BL21 (DE3), N-terminal His-tag cut with TEV protease; crystallized as a monomer, two per DNA duplex
Broadly, the Km is the concentration of substrate that gives half-maximal velocity. The term kcat denotes the maximal rate divided by the concentration of active sites. Take B3: in data set [3], the Km is given as 62.1 ± 6.6 µM and the kcat was determined as 149.3 ± 3.5 s⁻¹.

B4: 5'-tailed dsDNA (H1T12/H5-15) (dsDNA)
DNA 1: TCGGTACGACCTGCGAGCACTGCTT
DNA 2: TTTTTTTTTTTTTTTAAGCAGTGCTCGCAGGTCGTACCGA
modifications: fluorescein-dT at position 12 of strand 1
Take B4: in the data set with drUvrD G426T (setting [8]), the binding result is given as “binds”. Moreover, the Kd with drUvrD FL (WT) [1] (setting [8]) stood at 480 nM.

B5: For25/Rev25 (dsDNA)
DNA 1: GCAGTGCTCGCAGGTCGTTTTTTTT
DNA 2: ACGACCTGCGAGCACTGCTTTTTTT
Regarding B5, the binding result in the data set with drUvrDΔC [4] is on record as “binds”.

B6: For28/Rev28 (dsDNA)
DNA 1: GCAGTGCTCGCAGGTCGTACCTTTTTTT
DNA 2: GGTACGACCTGCGAGCACTGCTTTTTTT
With B6, the binding result in the data set with drUvrD FL (WT) [5] is given as “binds”.

B7: drUvrD^∆C (Deinococcus radiodurans R1 = ATCC 13939 = DSM 20539) (protein)
chain: T3 sequence
notes: C-terminally truncated, missing residues 666-745; pET151d, E. coli BL21 (DE3), N-terminal His-tag cut with TEV protease; crystallized as a monomer, two per DNA duplex
B7: in data set [6], the Km was 77.0 ± 16.9 µM and the turnover number (kcat) was 213.2 ± 11.7 s⁻¹.
